Legend:
[1] = test system: YFP-expressing Arabidopsis thaliana leaf; test: Quantification of peptide delivery efficiency (protein extracted from contacted leaf, PAGE fluorescence); assay type: in vivo; conditions: 6 hours after contact; for peptide/protein molar ratio at which the amount of the collected protein was the greatest: BSA-RhB
Procedure: (§1) About 100 μl of the solution of the carrier peptide/protein complex (the (BP100)2K/BSA-RhB or BP100(KH)9/BSA-RhB complex) prepared in Example 1 was brought into direct contact with an YFP-expressing Arabidopsis thaliana leaf at various peptide/protein molar ratios (1, 5, 10, and 25) with a needleless syringe. Also, about […] of the solution of the carrier peptide/protein complex (the (BP100)2Ks/ADH-RhB complex) prepared in Example 1 was brought into direct contact with an YFP-expressing Arabidopsis thaliana leaf at the peptide/protein molar ratio of 10.
A transgenic YFP-expressing Arabidopsis thaliana leaf was collected 6 hours after bringing it into contact with the (BP100)2K8/BSA-RhB or BP100(KH)9/BSA-RhB complex, and the leaf was washed 2 times with PBS (D-PBS(−), Wako Pure Chemical Industries Ltd., Osaka, Japan) to remove excess BSA-RhB on the leaf surface. Total crude protein extracted from the contacted leaf with 1× lysis buffer (Promega, Madison, U.S.A.) was subjected to 4 to 15% tris-glycine-sodium dodecyl sulfate (SDS)-polyacrylamide gel electrophoresis (PAGE) (Bio-rad, California, U.S.A.) at a constant voltage of 100 V. Thereafter, the BSA-RhB fluorescence was detected at the excitation light of 520 nm and the emission light of 605 nm with the Luminoimage analyzer (LAS-3000, Fujifilm Corporation, Tokyo, Japan). After detecting the fluorescence, the gel was stained with Coomassie blue G250 (Bio-rad, California, U.S.A.) to detect the Rubisco large subunit. The BSA-RhB fluorescence band density and the Coomassie blue-stained rbcL band density were quantified using Image J64 (NIH, Bethesda, Md.), and the BSA-RhB band density was normalized against the rbcL band density. SDS-PAGE was performed again based on the normalized data. The volume of the subjected crude protein in each sample was adjusted, in such a manner that the band density of Coomassie blue-stained rbcL bands would be equivalent to each other among all the tested samples, so as to attain the BSA-RhB band having the normalized fluorescence intensity. […] The total amount of the BSA-RhB protein collected from the contacted leaf was calculated in accordance with the formulae below.
The total amount (μg) of the BSA-RhB protein extracted per contacted leaf=(the amount (μg) of the protein corresponding to the RhB intensity measured per lane of the gel/the volume (μl) of the subjected crude protein per lane of the gel)×the total volume (l) of the extracted crude protein. […]
The obtained data are shown as the mean the standard deviation (SD) of the three tests. […] A statistic difference was determined at a statistic significance of p<0.05 via analysis of variance (ANOVA) and the Tukey's honestly significant difference (HSD) test.

[2] = Hydrodynamic diameter and PDI by dynamic light scattering (DLS); assay type: physicochemical; conditions: protein not forming the complex (no carrier peptide)
Procedure: (§2) A solution of 1.0 g/l of the peptide ((BP100)2K or BP100(KH)9) was mixed with 2 μg of the protein (the BSA-RhB conjugate) at various peptide/protein molar ratios (1, 5, 10, and 25) at 25° C. for about 5 minutes to prepare carrier peptide/protein complexes, and the resultants were diluted to the final volume of 100 μl with autoclaved ultrapure water (MilliQ water). Thereafter, 10 µl of the solution was taken and further diluted to the final volume of 100 μl. The average hydrodynamic diameter of the complexes was measured via dynamic light scattering (DLS) using Zetasizer Nano-ZS (Malvern Instruments, Ltd., Worcestershire, U.K.). Polydispersion indexes (PDI) were determined with the zeta nanosizer (Zetasizer software ver 6.20) using He—Ne laser (633 nm) at 25° C. and a backscattering detection angle of 173°. Thereafter, the sample was further diluted to the total volume of 750 μl with autoclaved ultrapure water (MilliQ water), and the zeta potential was analyzed via laser Doppler microelectrophoresis using Zetasizer Nano-ZS. The zeta potential and zeta shift of the samples were measured three times and the average was determined with Zetasizer software ver 6.20.

[3] = Zeta potential by laser Doppler microelectrophoresis; assay type: physicochemical; conditions: protein not forming the complex (no carrier peptide)
Procedure: as §2

[4] = test system: YFP-expressing Arabidopsis thaliana leaf; test: Incorporation of carrier peptide/protein complex into cells (CLSM); assay type: in vivo; conditions: ADH-RhB alone, absence of carrier peptide, data not shown
Procedure: as §1
Incorporation of proteins into cells was quantitatively assayed using a confocal laser scanning microscope (CLSM, Carl Zeiss, Oberkochen, Germany). Intracellular delivery of the peptide/BSA-RhB complex or the peptide/ADH-RhB complex to an YFP-expressing Arabidopsis thaliana leaf was observed by detecting the YFP fluorescence at the excitation light of 488 nm and detecting the RhB fluorescence at the excitation light of 555 nm.

KKLFKKILKYLKHKHKHKHKHKHKHKHKH (SEQ ID NO: 24) [BP100(KH)9, carrier peptide]
peptide/protein molar ratio at which the amount of the collected protein was the greatest [1]: 5

BSA-RhB: bovine serum albumin labeled with rhodamine B isothiocyanate, 4 RhB molecules per BSA [reference compound]
Hydrodynamic diameter [2]: 92±2 nm
Zeta potential [3]: −35.3±1.5 mV
BSA-RhB extracted from the leaf ([1]; with or without carrier peptide): extracted from the leaf only when the carrier peptide was used

KKLFKKILKYLKKLFKKILKYLKKKKKKKK (SEQ ID NO: 23) [(BP100)2K8, carrier peptide, fusion of BP100 and oligolysine]
peptide/protein molar ratio at which the amount of the collected protein was the greatest [1]: 10
protein delivery capacity (BSA-RhB extracted from leaf) ([1]; all peptide/protein molar ratios (1-25)): superior to that of the BP100(KH)9 fusion peptide

B1: ADH-RhB: alcohol dehydrogenase (150 kDa) labeled with rhodamine B isothiocyanate, 6 RhB molecules per ADH (conjugate)
chain: SIPETQKGVIFYESHGKLEYKDIPVPKPKANELLINVKYSGVCHTDLHAWHGDWPLPVKLPLVGGHEGAGVVVGMGENVKGWKIGDYAGIKWLNGSCMACEYCELGNESNCPHADLSGYTHDGSFQQYATADAVQAAHIPQGTDLAQVAPILCAGITVYKALKSANLMAGHWVAISGAAGGLGSLAVQYAKAMGYRVLGIDGGEGKEELFRSIGGEVFIDFTKEKDIVGAVLKATDGGAHGVINVSVSEAAIEASTRYVRANGTTVLVGMPAGAKCCSDVFNQVVKSISIVGSYVGNRADTREALDFFARGLVKSPIKVVGLSTLPEIYEKMEKGQIVGRYVVDTSK
ADH-RhB signal in leaf [4]: not detected
Hydrodynamic diameter [2]: 168±7 nm
Zeta potential [3]: −43.1±1.1 mV
